{"source": "paper PMC6859858", "key": {"[1]": {"molecular_target": "T1, CPSF-160;WDR33;CPSF-30;Fip1 (human;human;human;human, UniProt Q10570;Q9C0J8;O95639;Q6UN15 1-1443;1-425;1-269;159-200, |||)", "assay": "fluorescence polarization"}, "[2]": {"molecular_target": "T1, CPSF-160;WDR33;CPSF-30;Fip1", "assay": "competition fluorescence polarization"}, "[3]": {"molecular_target": "T1, CPSF-160;WDR33;CPSF-30;Fip1", "assay": "competition fluorescence polarization", "remark": "listed apart in the source"}, "[4]": {"molecular_target": "T2, Fip1 (human, UniProt Q6UN15 159-200)", "T2 chain": "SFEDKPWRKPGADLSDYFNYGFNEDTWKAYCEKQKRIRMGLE", "assay": "fluorescence polarization"}, "[5]": {"molecular_target": "CPSF-160;WDR33;CPSF-30 F112A;Fip1 (human;human;human;human, UniProt Q10570;Q9C0J8;O95639;Q6UN15 1-1443;1-425;1-269;159-200, ||F112A|)", "sequence (Q10570 whole entry, chain 1 of 3)": "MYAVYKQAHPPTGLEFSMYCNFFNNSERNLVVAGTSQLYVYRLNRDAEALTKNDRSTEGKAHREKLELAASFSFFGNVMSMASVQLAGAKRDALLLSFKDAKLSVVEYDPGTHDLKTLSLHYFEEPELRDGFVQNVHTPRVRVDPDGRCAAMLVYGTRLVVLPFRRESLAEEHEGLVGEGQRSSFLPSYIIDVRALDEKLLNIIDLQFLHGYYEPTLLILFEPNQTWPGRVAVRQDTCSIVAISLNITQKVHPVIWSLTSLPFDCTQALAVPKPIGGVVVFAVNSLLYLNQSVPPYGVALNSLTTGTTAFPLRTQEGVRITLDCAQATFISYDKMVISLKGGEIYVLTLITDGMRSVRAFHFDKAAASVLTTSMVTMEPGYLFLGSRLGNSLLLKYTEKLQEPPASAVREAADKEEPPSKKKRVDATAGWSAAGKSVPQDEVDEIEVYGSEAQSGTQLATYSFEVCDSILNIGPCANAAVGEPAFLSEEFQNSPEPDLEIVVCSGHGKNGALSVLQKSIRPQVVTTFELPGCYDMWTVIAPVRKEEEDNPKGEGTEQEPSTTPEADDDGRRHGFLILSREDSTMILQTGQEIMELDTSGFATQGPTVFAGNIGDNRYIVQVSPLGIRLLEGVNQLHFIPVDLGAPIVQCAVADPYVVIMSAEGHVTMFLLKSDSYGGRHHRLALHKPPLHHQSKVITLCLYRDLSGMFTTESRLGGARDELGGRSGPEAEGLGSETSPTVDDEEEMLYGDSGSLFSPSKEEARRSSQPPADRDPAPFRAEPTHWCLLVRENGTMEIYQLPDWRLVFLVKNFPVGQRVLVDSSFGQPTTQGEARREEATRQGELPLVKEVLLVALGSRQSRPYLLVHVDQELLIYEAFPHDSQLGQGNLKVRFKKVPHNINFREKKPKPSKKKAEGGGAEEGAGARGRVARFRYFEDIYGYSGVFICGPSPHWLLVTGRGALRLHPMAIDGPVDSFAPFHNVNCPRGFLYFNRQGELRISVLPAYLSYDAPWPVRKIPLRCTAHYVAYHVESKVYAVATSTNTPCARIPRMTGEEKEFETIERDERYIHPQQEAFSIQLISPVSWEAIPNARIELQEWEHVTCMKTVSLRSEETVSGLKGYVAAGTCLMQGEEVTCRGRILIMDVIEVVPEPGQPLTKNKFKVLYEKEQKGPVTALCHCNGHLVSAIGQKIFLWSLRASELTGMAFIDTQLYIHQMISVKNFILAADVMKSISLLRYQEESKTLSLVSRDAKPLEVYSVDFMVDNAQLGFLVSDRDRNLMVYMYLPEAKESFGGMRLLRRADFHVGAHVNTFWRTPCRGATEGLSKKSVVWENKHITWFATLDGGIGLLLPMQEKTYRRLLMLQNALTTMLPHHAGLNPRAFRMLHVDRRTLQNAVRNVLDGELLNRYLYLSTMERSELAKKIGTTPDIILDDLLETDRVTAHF", "sequence (Q9C0J8 1-425, chain 2 of 3)": "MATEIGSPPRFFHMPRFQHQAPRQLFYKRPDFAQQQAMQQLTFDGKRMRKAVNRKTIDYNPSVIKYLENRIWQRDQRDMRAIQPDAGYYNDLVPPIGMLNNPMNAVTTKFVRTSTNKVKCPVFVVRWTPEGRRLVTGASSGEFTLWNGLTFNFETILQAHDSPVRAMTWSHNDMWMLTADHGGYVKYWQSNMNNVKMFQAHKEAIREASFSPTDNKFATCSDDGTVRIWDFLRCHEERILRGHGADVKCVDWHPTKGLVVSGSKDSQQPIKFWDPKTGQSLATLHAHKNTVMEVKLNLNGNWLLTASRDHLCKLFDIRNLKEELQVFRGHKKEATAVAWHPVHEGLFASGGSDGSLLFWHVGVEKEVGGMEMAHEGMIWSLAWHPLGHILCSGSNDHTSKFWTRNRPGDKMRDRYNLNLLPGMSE", "sequence (O95639 whole entry F112A, chain 3 of 3)": "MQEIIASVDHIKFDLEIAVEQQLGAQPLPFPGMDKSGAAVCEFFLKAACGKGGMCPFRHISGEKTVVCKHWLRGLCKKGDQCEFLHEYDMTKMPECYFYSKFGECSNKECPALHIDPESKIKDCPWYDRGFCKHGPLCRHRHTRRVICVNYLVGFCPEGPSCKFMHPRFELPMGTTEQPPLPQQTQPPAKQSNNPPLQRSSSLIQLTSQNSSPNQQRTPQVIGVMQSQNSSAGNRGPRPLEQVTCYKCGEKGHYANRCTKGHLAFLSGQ", "assay": "fluorescence polarization"}, "[6]": {"molecular_target": "CPSF-160;WDR33;CPSF-30 H70A;Fip1 (human;human;human;human, UniProt Q10570;Q9C0J8;O95639;Q6UN15 1-1443;1-425;1-269;159-200, ||H70A|)", "sequence (Q10570 whole entry, chain 1 of 3)": "as the sequence (Q10570 whole entry, chain 1 of 3) above", "sequence (Q9C0J8 1-425, chain 2 of 3)": "as the sequence (Q9C0J8 1-425, chain 2 of 3) above", "sequence (O95639 whole entry H70A, chain 3 of 3)": "as the sequence (O95639 whole entry F112A, chain 3 of 3) above, with H70A, A112F counted along it", "assay": "fluorescence polarization"}, "[7]": {"molecular_target": "CPSF-160;WDR33;CPSF-30 R73A;Fip1 (human;human;human;human, UniProt Q10570;Q9C0J8;O95639;Q6UN15 1-1443;1-425;1-269;159-200, ||R73A|)", "sequence (Q10570 whole entry, chain 1 of 3)": "as the sequence (Q10570 whole entry, chain 1 of 3) above", "sequence (Q9C0J8 1-425, chain 2 of 3)": "as the sequence (Q9C0J8 1-425, chain 2 of 3) above", "sequence (O95639 whole entry R73A, chain 3 of 3)": "as the sequence (O95639 whole entry F112A, chain 3 of 3) above, with R73A, A112F counted along it", "assay": "fluorescence polarization"}, "[8]": {"molecular_target": "CPSF-160;WDR33;CPSF-30 F84A;Fip1 (human;human;human;human, UniProt Q10570;Q9C0J8;O95639;Q6UN15 1-1443;1-425;1-269;159-200, ||F84A|)", "sequence (Q10570 whole entry, chain 1 of 3)": "as the sequence (Q10570 whole entry, chain 1 of 3) above", "sequence (Q9C0J8 1-425, chain 2 of 3)": "as the sequence (Q9C0J8 1-425, chain 2 of 3) above", "sequence (O95639 whole entry F84A, chain 3 of 3)": "as the sequence (O95639 whole entry F112A, chain 3 of 3) above, with F84A, A112F counted along it", "assay": "fluorescence polarization"}, "[9]": {"molecular_target": "CPSF-160;WDR33;CPSF-30 (human;human;human, UniProt Q10570;Q9C0J8;O95639 1-1443;1-425;1-269, ||)", "sequence (Q10570 whole entry, chain 1 of 3)": "as the sequence (Q10570 whole entry, chain 1 of 3) above", "sequence (Q9C0J8 1-425, chain 2 of 3)": "as the sequence (Q9C0J8 1-425, chain 2 of 3) above", "sequence (O95639 whole entry, chain 3 of 3)": "as the sequence (O95639 whole entry F112A, chain 3 of 3) above, with A112F counted along it", "assay": "fluorescence polarization"}, "[10]": {"molecular_target": "T1, CPSF-160;WDR33;CPSF-30;Fip1", "assay": "fluorescence polarization", "remark": "listed apart in the source"}, "[11]": {"molecular_target": "T1, CPSF-160;WDR33;CPSF-30;Fip1", "assay": "fluorescence polarization", "remark": "listed apart in the source"}}}
{"binder": "AAUAAA (ssRNA, 3' phosphate linking the FAM)", "note": "[6-mer AAUAAA, FAM]", "values": [{"measurement": "Kd", "setting": "[1]", "result": "8.05 ± 0.45", "unit": "nM"}]}
{"binder": "CAAUAAAC (ssRNA)", "note": "[8-mer AAUAAA, unlabeled]", "values": [{"measurement": "Kd", "setting": "[2]", "result": "57 ± 18", "unit": "nM"}]}
{"binder": "AAUAAAC (ssRNA)", "note": "[7-mer AAUAAAC, unlabeled]", "values": [{"measurement": "binding signal", "setting": "[3]", "result": "35 fold higher Kd than 11-mer"}]}
{"binder": "CAAUAAACAAC (ssRNA)", "note": "[11-mer AAUAAA PAS, FAM]", "values": [{"measurement": "Kd", "setting": "[1]", "result": "0.32 ± 0.04", "unit": "nM"}]}
{"binder": "AACCUCCAAUAAACAAC (ssRNA)", "note": "[17-mer AAUAAA PAS]", "values": [{"measurement": "binding result", "setting": "[4]", "result": "no binding"}, {"measurement": "binding signal", "setting": "[5]", "result": "140 fold higher Kd than wild type"}, {"measurement": "binding signal", "setting": "[6]", "result": "90 fold higher Kd than wild type"}, {"measurement": "binding signal", "setting": "[7]", "result": "17 fold higher Kd than wild type"}, {"measurement": "binding signal", "setting": "[8]", "result": "8 fold higher Kd than wild type"}, {"measurement": "Kd", "setting": "[9]", "result": "0.25 ± 0.05", "unit": "nM"}, {"measurement": "Kd", "setting": "[1]", "result": "0.28 ± 0.07", "unit": "nM"}, {"measurement": "Kd", "setting": "[10]", "result": "0.19 ± 0.03", "unit": "nM"}, {"measurement": "binding signal", "setting": "[11]", "result": "3 fold higher Kd than maximal binding"}]}
